Assay results taken from the DeepSol protein solubility set.

Assay: soluble on expression in E. coli; label from the status in PepcDB or PDB records

Sequence | soluble on expression in E. coli
MDLSAVRFDEKGLVPVVVQDARTGEVLTLAYANREALEETLRTRRSTFFSRSRQALWRKGETSGHTQEVVEVLLDCDGDAVVYRVLPQGPACHTGERTCFHRALLEGEKDLGFVVGQVYATIKERLRTLPEGSYVARMHQAGLDRILKKIGEEAGEVILAAKNQNPEELRHEAADLLFHLLLTLAELGLTPEDLAKTLWERHRPRSPYDGSHGN | soluble
AQSVPWGISRVQAPAAHNRGLTGSGVKVAVLDTGISTHPDLNIRGGASFVPGEPSTQDGNGHGTHVAGTIAALNNSIGVLGVAPNAELYAVKVLGASGSGSVSSIAQGLEWAGNNGMHVANLSLGSPSPSATLEQAVNSATSRGVLVVAASGNSGAGSISYPARYANAMAVGATDQNNNRASFSQYGAGLDIVAPGVNVQSTYPGSTYASLNGTSMATPHVAGAAALVKQKNPSWSNVQIRNHLKNTATSLGSTNLYGSGLVNAEAATR | soluble
MTTYPADTPIITQPPSPDSPSSSNGSSTSLSENLNNNSVSNQIEYVNQNNNSDNFTVGLGFLGASGNYGNYSSHLNNNLSISQNQSVSLNSSSSSVGAGLTPGNGSVGSTSNSSSAASSIQNIGLNSSLINSNTNNLSSSSHSMSGSNNNNSNNNVVNNYLTVYGNNGSSGGGSGSGGGSGPGADSPRIHCCRPCCPYSHHRRLCDPCYCSNRPESHRDSSSSEEVNDAQSDENTYFQFDFIGVDGHHARRVLPPSWRILRNSKAESSDESSLSDAVQTVDLPKIPQKKIRCVYSIDAEEIEGKKCMLECIRSSCLPRYVECHRRRRCSRKQRCHTTTQPPSPTTESLPTSTTTYEMNTTSLETSTTDISTITSTEEPISTTVKTHEQSSTSGMEFSTMSTTYEPITTTLETSTTDISIITSTEEPDTSTTTESNEQSSTTGMEFSTMSTTYEPITTSLETSTTDMLTNTSTEEPDISTTIEPNAQSTTYEMESSTVSVTYEPETTSLETSSTKVSSTTATGEPASTTMEANEHSSTFETESSTVPATNEPITTSFIPSTTDLSIITSTEEAKISTTMETDELSTTTESSYSTTQFTTFKIPTSSFSTLPMEGTSTKEQTTLSTEETSSATTATIFEKLSTTLFFEETQVTSTSDFTSSPRSIETTRVIEFDTSTELQTTSKTSTTTEDTTTVGTTTEMEMRRFWRLFG | not soluble
MGSSHHHHHHSSENLYFQGHMSDLPRISVAAPRLDGNERDYVLECMDTTWISSVGRFIVEFEKAFADYCGVKHAIACNNGTTALHLALVAMGIGPGDEVIVPSLTYIASANSVTYCGATPVLVDNDPRTFNLDAAKLEALITPRTKAIMPVHLYGQICDMDPILEVARRHNLLVIEDAAEAVGATYRGKKSGSLGDCATFSFFGNKIITTGEGGMITTNDDDLAAKMRLLRGQGMDPNRRYWFPIVGFNYRMTNIQAAIGLAQLERVDEHLAARERVVGWYEQKLARLGNRVTKPHVALTGRHVFWMYTVRLGEGLSTTRDQVIKDLDALGIESRPVFHPMHIMPPYAHLATDDLKIAEACGVDGLNLPTHAGLTEADIDRVIAALDQVLV | soluble
MVTIANDFLTVKISRHGAELTSIKDNLTGRERLWQADPAVWGRHAPVLFPIVGALADNQYHYAGKTYHMGQHGFARDRDFTVLSATPFKASFVLKDDDKTRAMYPFAFRLIITFALENNNLHVTYHVDNPDKSEPLFFSIGGHPGFKVPMTPDTQFSDYYLNFKPRKSLVQIPLVAGEGIDYTHRTLAATDANLALTHETFDHDALIFALLGKTTFNLVSDKTKHGVSVTMTDTPYLGVWSPYPTTGDFVCIEPWWGIADTIGSTGDLTRKLGINRLEPGTAFEKGYMISIFLEHHHHHH | not soluble
MAHHHHHHMKEYLAQKEYRAKEYRAKDYPAKDYSGKKEYTSKKAYTPKKEYTAIRGCAVENAYFDEKAYTGCKANQGEEAHKNDASVVEGGKSKKNEERVLAGMIKILEEMKESDDASNAVDPGFN | not soluble
MSLSFLYFNDNSKIANAPLKNRFEKTQKESLIIKNNNEDKKAKSKPKFYLIIDDVGYDEFMLEQFIKLNLKITYAIIPFLPKSMSLYKKLKNANKTVIIHFPMQSKHRNSIEKFHINIKDKKEEIHKKIEKAFKKYPDAKIMNNHMGSLITSNKDLMKIILEKLKEIDRYFFDSVTIAGSVPEIIGKEIGVKVEKRDVFLDSKDTEESVTKELEKAKNIARKNGMVKVIGHIWSKNTLKVLKKEGPDLNQEFEFDNLLNLYEETIREGHHHHHH | not soluble
MAHHHHHHMAVENMLGKLKQNPGDYYNSVSALFFHRPYNMMPIQAMSFLYVRGLARATSAEHKKYFEELCSKAKVEPAAVQTELDVIPDYFGMIESGQEPKDVFGATNKVAKAVRADKDFSSLLSRKMSLGSSAMANFGNLYTASLPCWIAAGLEEAYNKKQDITNHPMVMVGYGSGDASEAIPIVPVKGWEEAASKINVAAALEKPVNLTREQYEGMHNGSLKSDLAAGNRQKEFVVAHIGSRNDMAFQDIGIEYYQFVH | not soluble
REAFVSIQTSTIPKTAYAAVNFVETQGEDESYTDSLSTDNKRDIYADFAVIEIPLFLTNHRDYQVFNEFIKPAIETYKQLGNSSFEKKQLDQHKNDNFYMLGYPLVESSIDALILNQRRQYNNSYTEKYTPQTLTKDQRTIDLSREVPTLIQNKTENSTGSQLLVNQSLSSTSEGIIE | soluble
MTETLDHMDQSKIDHQKLAQQLLAQAKAEGVELVGPNGLLNQLTANVLETALEAEMDEHLGYEKHHVTGRNRENSRNGRRTKTVLTEIGPVQIQVPRDTDASFDPQIVKKRQRRLTGVDEIILSLSAKGLTTGEIAAHFDDVYGASVSKETISKITDKVLTEMAEWSVRPLDPVYPVLFIDAIHVKIRDGQVANRPVYVAIGVTTAGEREILGLWAGDGGEGAKFWLAVLTEIRNRGVADVCIAVCDGLKGLPDAITTVWPLTVVQTCLIHLLRNTFRYASRQYWDEMSRDLRPIYTAVNEAAAKEQFTEFADKWGPRYPAIVRLWESAWSEFVPFLDYDPEIRRVICSTNAIESLNARYRRAVRARGHFPSEQAALKCLYLATRSLDPTGKGRARWVTRWKPALNAFAITFEGRITPTVI | not soluble
MSLIYHRIAVNVPLSDGLLTYSHSDPLPPGTRVLVPFRNKTVVGMVWETDIAPDMDMARILSVQTAFVEEKPLPESWRDLLAFTSRYYHYPTGQAVFAALPQGLKETRAVEMPQPPLFYALNEAGRAQTPPPARFNKKAALWDALLSGGMTMAALKQVNAQAAKLIEDWAEQGWIETTEAAKPVLRSYHGQASHSEFVLNADQQQASDEIQTAFGSFQPFLLYGITGSGKTEVYFDAMAKVLAQGRQVLFLLPEINLTPQLLKRVENRFADVPTAVLHSQMAAGKRTQDYLRAMLGQAKLVIGTRLAVFTPMDDVGLIVVDEEHDGSFKQDNELRYHARDLAVWRAKQGGCPIILGSATPSLESWHKAQSGAYRLLQLTERAHTAAQLPQVDILNVGRLKLDNGFSPQALQLLKQNFEAGGMSLVYLNRRGFAPALFCGDCGYTFGCPNCSAKMVLHQRARQLRCHHCDHREPIPYKCPDCGNQDLTAVGHGTQRVEETLRTFLPKAAVVRVDRDSTAHKNDWADLYRRIADNKIDILVGTQMLAKGHDFARLNLVIVLNADGSLYSADFRAPERLFAELMQVSGRAGRADKPGKVLIQTQLPEHPVFAAVKAQDYAVFAENELNERQMFAMPPFGFQTAVRADAPRVADAMEFLNAAKETLAPLLPESVSQFGAAPMLMVRLAERERAQIFLESPSRQDLHRAVSLWAQVLQQNRDGKIRWSVDVDPQEAEGHHHHHH | not soluble
MAHHHHHHMNKVVIISIFFFFFFQDHNNKSINSYNKINSSSTYTHSRILKQLEFITLEEKTVNALQEMLDSVEEDPSEKKCNRLLAKLKIRNEYHKHRKPHNYYARKNKKKEQKRQHLKKNKGKLNRLQQLEEKLFTHADLLRSAIFERTSRVPDGIFYT | not soluble
MEVLKVASNSNPNKVAGALAGVIREKGKAELQAIGAGAVNQAVKAIAIARGYLAPSGINLVCVPAFAEVQINGETRTAIKFIVFPKD | not soluble
MSDDALSRIAAALERMSPPPMPAPDFSAVDAFAWHTSPDRLEPVPRVARVDLSLLVGVNRARDILLDNTEHFARGLPANNALLWGSRGMGKSSLVKAIHAAVVAKGLPLKIVELSREDLPSVQRLLKHLRGAPFRFILFCDDLSFSHDDQHYKSLKAVLDGGIEGRPENVILYATSNRRHLMPRDMIENERSTAISPSEAVEEKVSLSDRFGLWLGFHPCSQDEYLEMIRGYCAAHGLSVAEEELRAEAIEWQATRGARSGRVAWQFFTDLAARHGVALLEHHHHHH | not soluble
